Measured values taken from patent US20160326264A1 (SORRENTO THERAPEUTICS, published 2016).

Legend:
[1] = molecular target: T1, endogenous human PSMA (prostate-specific membrane antigen) expressed on LNCaP human prostate cancer cells (human, UniProt Q04609 1-750); assay: flow cytometry on LNCaP cells
T1 construct: whole, on cells; also called PSMA-expressing LNCaP cells
Protocol: PSMA expressing LNCaP cells were harvested with enzyme-free Cell Dissociation Buffer (GIBCO) and transferred to V-Bottom 96 well-plates (50,000 cells/well). Cells were incubated on ice for 45 min with serial dilutions of anti-PSMA antibodies PSGB11, PSGB12, PSGC12, PSGD4, PSGD6 and PSA11 in FACS buffer (PBS+ 2% FBS)+NaN₃. […] After 1 wash in FACS buffer, a 1:1000 dilution of Phycoerythrin conjugated anti-Human IgG (γ-chain specific) was added and incubated for 30 min Following a final wash, fluorescence intensity was measured on an Intellicyt High Throughput Flow Cytometer (HTFC).
Data were analyzed using Graphpad Prism software and non-linear regression fit. Data points are shown as the median fluorescence intensity (MFI) of positively labeled cells +/−Standard Error. EC₅₀ values are reported as the concentration of antibody to achieve 50% of maximal PSMA antibodies binding to PSMA expressing cells.

[2] = molecular target: T1, endogenous human PSMA …; assay: cell-based or functional assay
[3] = molecular target: T2, recombinant human PSMA/His (human, UniProt Q04609 44-750); assay: Octet biolayer interferometry, antibody amine-coupled to AR2G sensor, recombinant human PSMA/His in solution at 0.75 to 48.1 nM, global 1:1 fit; column headed kdis(1/s) (same value in all 7 rows)
T2 construct: not shown: His tag
Protocol: (§1) Specifically, an amine Reactive Second-Generation (AR2G) sensor was coated with antibody (15 ug/ml in acetic buffer, pH5.0) using Sulfo-N-hydroxysuccinimide/N-Ethyl-N′-(3-dimethylaminopropyl)carbodiimide hydrochloride (Sulfo-NHS/EDC) coupling methodology. The sensors were quenched with 1M pH 8.5 ethanolamine Data was collected by moving sensors to serially diluted recombinant human PSMA/His (in PBS buffer) wells, then the data was dissociated by transferring the sensors to PBS wells. A 1:1 binding model was used to fit the data.

[4] = molecular target: T2, recombinant human PSMA/His; assay: Octet biolayer interferometry, antibody amine-coupled to AR2G sensor, recombinant human PSMA/His in solution at 0.75 to 48.1 nM, global 1:1 fit (same value in all 7 rows)
Protocol: as §1

[5] = molecular target: T2, recombinant human PSMA/His; assay: BLI (Octet), antibody amine-coupled to AR2G sensor, PSMA/His in solution, 1:1 model; FIG. 3, antibody PSA11
Protocol: as §1

T1 sequence (Q04609 whole entry): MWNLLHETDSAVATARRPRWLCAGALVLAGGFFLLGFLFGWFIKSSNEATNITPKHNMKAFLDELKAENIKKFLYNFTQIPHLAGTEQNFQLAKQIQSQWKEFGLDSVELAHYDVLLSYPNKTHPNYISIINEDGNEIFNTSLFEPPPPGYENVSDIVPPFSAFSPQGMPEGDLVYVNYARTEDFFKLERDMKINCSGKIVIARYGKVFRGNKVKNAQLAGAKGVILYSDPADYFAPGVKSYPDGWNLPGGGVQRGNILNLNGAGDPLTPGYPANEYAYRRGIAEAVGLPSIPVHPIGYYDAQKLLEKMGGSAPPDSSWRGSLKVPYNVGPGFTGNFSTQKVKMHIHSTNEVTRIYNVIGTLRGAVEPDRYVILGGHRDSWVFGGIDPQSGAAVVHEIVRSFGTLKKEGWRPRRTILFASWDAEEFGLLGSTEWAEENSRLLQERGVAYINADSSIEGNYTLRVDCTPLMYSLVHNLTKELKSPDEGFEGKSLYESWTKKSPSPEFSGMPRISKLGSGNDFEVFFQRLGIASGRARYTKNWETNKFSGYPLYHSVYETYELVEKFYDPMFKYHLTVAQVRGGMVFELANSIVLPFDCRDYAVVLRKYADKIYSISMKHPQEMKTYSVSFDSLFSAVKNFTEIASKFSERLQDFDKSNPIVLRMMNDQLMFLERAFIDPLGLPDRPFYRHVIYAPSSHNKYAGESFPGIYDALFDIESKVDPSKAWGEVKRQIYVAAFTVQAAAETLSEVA
T2 sequence (Q04609 44-750 limits assumed): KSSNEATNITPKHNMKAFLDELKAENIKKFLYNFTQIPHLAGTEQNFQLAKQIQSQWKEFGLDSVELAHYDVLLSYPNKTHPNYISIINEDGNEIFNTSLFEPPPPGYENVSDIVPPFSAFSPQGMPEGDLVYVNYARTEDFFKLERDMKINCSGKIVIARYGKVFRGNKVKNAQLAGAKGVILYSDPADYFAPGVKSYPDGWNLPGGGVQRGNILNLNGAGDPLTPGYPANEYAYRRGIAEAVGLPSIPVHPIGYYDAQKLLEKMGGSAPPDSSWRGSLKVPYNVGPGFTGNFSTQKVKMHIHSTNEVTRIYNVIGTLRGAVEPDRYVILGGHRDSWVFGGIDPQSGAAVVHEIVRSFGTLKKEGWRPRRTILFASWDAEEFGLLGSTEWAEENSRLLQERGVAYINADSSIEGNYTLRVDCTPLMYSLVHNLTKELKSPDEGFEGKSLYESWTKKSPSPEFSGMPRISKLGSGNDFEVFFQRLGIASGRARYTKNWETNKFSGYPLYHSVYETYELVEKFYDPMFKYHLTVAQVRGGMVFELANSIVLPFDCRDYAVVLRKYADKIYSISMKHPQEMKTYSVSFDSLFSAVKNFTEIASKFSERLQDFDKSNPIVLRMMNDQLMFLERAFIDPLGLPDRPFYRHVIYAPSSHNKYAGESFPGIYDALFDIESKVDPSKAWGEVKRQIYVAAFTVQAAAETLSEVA

EC50 [1] [nM] | koff [3] [s⁻¹] | Kd [4] [nM] | kon [4] [M⁻¹ s⁻¹] | Kd [5] [nM] | Binder | Cell killing, 2-hours-wash method (IC50, nM); antibody pre-complexed with Protein G-MMAF, LNCaP cells, Cell Titer Glo [2] [nM] | Cell killing, No wash method (IC50, nM); antibody pre-complexed with Protein G-MMAF, LNCaP cells, Cell Titer Glo [2] [nM]
1.3 |  |  |  |  | anti-PSMA antibody PSGG6 (antibody, V domains shown, Fully human IgG) VH: QVQLVQSGGGLVQPGGSLRLSCAASGFTFSSYWMSWVRQAPGKGLEWVANIKQDGSEKYYVDSVKGRFTISRDNAKNSLYLQMNSLRAEDTAVYYCARVWDYYYDSSGDAFDIWGQGTMVTVSS VL: EIVLTQSPSSLSASVGDRVTITCRASQGISSYLAWYQQKPGKAPKLLIYAASTLQSGVPSRFSGSGSGTDFTLTISSLQPEDFATYYCQQLNSYPRGITFGQGTKLEIK |  | 
1.92 |  |  |  |  | anti-PSMA antibody PSGE10 (antibody, V domains shown, Fully human IgG) VH: QVQLVQSGGGLVQPGGSLRLSCAASGFTFSSYWMSWVRQAPGKGLEWVANIKQDGSEKYYVDSVKGRFTISRDNAKNSLYLQMNSLRAEDTAVYYCARVWDYYYDSSGDAFDIWGQGTMVTVSS VL: DVVMTQSPSSVSASVGDRVTITCRASQGISSWLAWYQQKPGKAPKLLIYAASTLQSGVPSRFSGSGSGTDFTLTINNLQPEDFATYYCQQTASFPINFGGGTKVEIK | 1.58 | 0.08
1.59 |  |  |  |  | anti-PSMA antibody PSGD4 (antibody, V domains shown, Fully human IgG) VH: QVQLVQSGGGLVQPGGSLRLSCAASGFTFSSYWMSWVRQAPGKGLEWVANIKQDGSEKYYVDSVKGRFTISRDNAKNSLYLQMNSLRAEDTAVYYCARVWDYYYDSSGDAFDIWGQGTMVTVSS VL: DIVMTQSPSSLSASVGDRVSITCRASQGISTWLAWYQQKPGKAPDLLIYAASNLQSGVPSRFSGSGSGTDFTLTISSLQPEDFATYYCQQANSFPLTFGGGTKVEIK | 2.09 | 0.06
3.72 |  |  |  |  | anti-PSMA antibody PSGH3 (antibody, V domains shown, Fully human IgG) VH: QVQLVQSGGGLVQPGGSLRLSCAASGFTFSSYWMSWVRQAPGKGLEWVANIKQDGSEKYYVDSVKGRFTISRDNAKNSLYLQMNSLRAEDTAVYYCARVWDYYYDSSGDAFDIWGQGTMVTVSS VL: DIVMTQSPSSVSASVGDRVTITCRASQGISNWLAWYQQKPGKAPKLLIYVASSLQSGVPSRFSGSGSGTDFTLTISSLQPEDFATYYCQQANSFPITFGQGTRLEIK | 1.51 | 0.06
2.08 |  |  |  |  | anti-PSMA antibody PSGF9 (antibody, V domains shown, Fully human IgG) VH: QVQLVQSGGGLVQPGGSLRLSCAASGFTFSSYWMSWVRQAPGKGLEWVANIKQDGSEKYYVDSVKGRFTISRDNAKNSLYLQMNSLRAEDTAVYYCARVWDYYYDSSGDAFDIWGQGTMVTVSS VL: AIQMTQSPSSVSASVGDRVTITCRASQGISSWLAWYQQKPGKAPKLLIYAASSLQSGVPSRFSGSGSGTDFTLTISSLQPEDIATYYCQESYSTPFTFGPGTKVDIK | 1.33 | 0.13
2.13 |  |  |  |  | anti-PSMA antibody PSGH8 (antibody, V domains shown, Fully human IgG) VH: QVQLVQSGGGLVQPGGSLRLSCAASGFTFSSYWMSWVRQAPGKGLEWVANIKQDGSEKYYVDSVKGRFTISRDNAKNSLYLQMNSLRAEDTAVYYCARVWDYYYDSSGDAFDIWGQGTMVTVSS VL: DIVMTQSPSSLSASVGDRVTITCRASQGISSWLAWYQQKPGKAPKLLIYAASSLQSGVPSRFSGSGSGTDFTLTINSLQPEDFATYYCQQASGFPFTFGPGTKVDIK |  | 

Continued, binder first:

Binder | EC50 [1] [nM] | koff [3] [s⁻¹] | Kd [4] [nM] | kon [4] [M⁻¹ s⁻¹] | Kd [5] [nM] | Cell killing, 2-hours-wash method (IC50, nM); antibody pre-complexed with Protein G-MMAF, LNCaP cells, Cell Titer Glo [2] [nM] | Cell killing, No wash method (IC50, nM); antibody pre-complexed with Protein G-MMAF, LNCaP cells, Cell Titer Glo [2] [nM]
anti-PSMA antibody PSGD6 (antibody, V domains shown, Fully human IgG) VH: QVQLVQSGGGLVQPGGSLRLSCAASGFTFSSYWMSWVRQAPGKGLEWVANIKQDGSEKYYVDSVKGRFTISRDNAKNSLYLQMNSLRAEDTAVYYCARVWDYYYDSSGDAFDIWGQGTMVTVSS VL: DIVMTQSPSSVSASVGDRVTITCRASQAISSWLAWYQQKPGKAPKLLIYAASSLQSGVPSRFSGSGSGTDFTLTISSLQPEDFATYYCQQAYSFPVTFGPGTKVDIK | 1.92 |  |  |  |  | 1.13 | 0.04
anti-PSMA antibody PSGD3 (antibody, V domains shown, Fully human IgG) VH: QVQLVQSGGGLVQPGGSLRLSCAASGFTFSSYWMSWVRQAPGKGLEWVANIKQDGSEKYYVDSVKGRFTISRDNAKNSLYLQMNSLRAEDTAVYYCARVWDYYYDSSGDAFDIWGQGTMVTVSS VL: DIVMTQSPSSVSASVGDRVTITCRASQDINNWLAWYQQKAGKAPKLLIYVATKLQNGVPSRFSGSGSGTDFTLSISNLQPEDFATYYCQQAKSFPYTFGQGTKLEIK | 3.15 |  |  |  |  | 2.24 | 0.12
anti-PSMA antibody PSGC9 (antibody, V domains shown, Fully human IgG) VH: QVQLVQSGGGLVQPGGSLRLSCAASGFTFSSYWMSWVRQAPGKGLEWVANIKQDGSEKYYVDSVKGRFTISRDNAKNSLYLQMNSLRAEDTAVYYCARVWDYYYDSSGDAFDIWGQGTMVTVSS VL: AIRMTQSPSTLSASVGDRVTITCRASQNIYGWLAWYQQKPGKAPELLIYAASSLQSGVPSRFSGSGSGTDFTLTINSLQPEDFATYYCQQSYTIPFTFGPGTKVDIK | 2.05 |  |  |  |  | 1.22 | 0.06
anti-PSMA antibody PSGC8 (antibody, V domains shown, Fully human IgG) VH: QVQLVQSGGGLVQPGGSLRLSCAASGFTFSSYWMSWVRQAPGKGLEWVANIKQDGSEKYYVDSVKGRFTISRDNAKNSLYLQMNSLRAEDTAVYYCARVWDYYYDSSGDAFDIWGQGTMVTVSS VL: AIRMTQSPSSVSASVGDRVTITCRASQGISSWLAWYQQKPGKAPKLLIYAASSLQSGVPSRFSGSGSGTDFTLTISSLKPEDFATYYCQQANSFPRALTFGGGTKVEIK | 3.84 |  |  |  |  |  | 
anti-PSMA antibody PSGC12 (antibody, V domains shown, Fully human IgG) VH: QVQLVQSGGGLVQPGGSLRLSCAASGFTFSSYWMSWVRQAPGKGLEWVANIKQDGSEKYYVDSVKGRFTISRDNAKNSLYLQMNSLRAEDTAVYYCARVWDYYYDSSGDAFDIWGQGTMVTVSS VL: DIVMTQSPSSVSASVGDRVTITCRASQDVGTWLAWYQQKPGRAPKLLIYVASSLQSGVPSRFSGSGSGTDFTLTISSLQPEDSATYYCQQAKGIPYTFGQGTKLEIK | 2.84 |  |  |  |  |  | 
anti-PSMA antibody PSGB12 (antibody, V domains shown, Fully human IgG) VH: QVQLVQSGGGLVQPGGSLRLSCAASGFTFSSYWMSWVRQAPGKGLEWVANIKQDGSEKYYVDSVKGRFTISRDNAKNSLYLQMNSLRAEDTAVYYCARVWDYYYDSSGDAFDIWGQGTMVTVSS VL: DVVMTQSPSTLSASVGDRVTITCRASQSISSWLAWYQQKPGKAPKLLIFAASSLQSGVPSRFSGSGSGTDFALTISSLQPEDFATYYCQESYSIPWTFGQGTKVEIK | 3.46 |  |  |  |  | 1.66 | 0.05
anti-PSMA antibody PSA11 (antibody, V domains shown, Fully human IgG (detected with anti-human IgG, gamma-chain specific)) VH: QVQLVQSGGGLVQPGGSLRLSCAASGFTFSSYWMSWVRQAPGKGLEWVANIKQDGSEKYYVDSVKGRFTISRDNAKNSLYLQMNSLRAEDTAVYYCARVWDYYYDSSGDAFDIWGQGTMVTVSS VL: VIWMTQSPSSVSASVGDRVTITCRASQGISSWLAWYQQKPGKAPKLLIYAASNLQSGVPSRFSGSGSGTDFTLTISSLQPEDFATYYCQQANSFPLTFGGGTKVDIK | 2.4 | 6e-05 | 0.681 | 88100 | ~0.67 | 1.55 | 0.08
